The chains are these.
B1: CDC25C (protein, UniProt P30307 2-473, looked up)
M-phase inducer phosphatase 3: STELFSSTREEGSSGSGPSFRSNQRKMLNLLLERDTSFTVCPDVPRTPVGKFLGDSANLSILSGGTPKRCLDLSNLSSGEITATQLTTSADLDETGHLDSSGLQEVHLAGMNHDQHLMKCSPAQLLCSTPNGLDRGHRKRDAMCSSSANKENDNGNLVDSEMKYLGSPITTVPKLDKNPNLGEDQAEEISDELMEFSLKDQEAKVSRSGLYRSPSMPENLNRPRLKQVEKFKDNTIPDKVKKKYFSGQGKLRKGLCLKKTVSLCDITITQMLEEDSNQGHLIGDFSKVCALPTVSGKHQDLKYVNPETVAALLSGKFQGLIEKFYVIDCRYPYEYLGGHIQGALNLYSQEELFNFFLKKPIVPLDTQKRIIIVFHCEFSSERGPRMCRCLREEDRSLNQYPALYYPELYILKGGYRDFFPEYMELCEPQSYCPMHHQDHKTELLRCRSQSKVQEGERQLREQIALLVKDMSP
B2: EPS8 (protein, UniProt Q12929 1-822, looked up)
Epidermal growth factor …: MNGHISNHPSSFGMYPSQMNGYGSSPTFSQTDREHGSKTSAKALYEQRKNYARDSVSSVSDISQYRVEHLTTFVLDRKDAMITVDDGIRKLKLLDAKGKVWTQDMILQVDDRAVSLIDLESKNELENFPLNTIQHCQAVMHSCSYDSVLALVCKEPTQNKPDLHLFQCDEVKANLISEDIESAISDSKGGKQKRRPDALRMISNADPSIPPPPRAPAPAPPGTVTQVDVRSRVAAWSAWAADQGDFEKPRQYHEQEETPEMMAARIDRDVQILNHILDDIEFFITKLQKAAEAFSELSKRKKNKKGKRKGPGEGVLTLRAKPPPPDEFLDCFQKFKHGFNLLAKLKSHIQNPSAADLVHFLFTPLNMVVQATGGPELASSVLSPLLNKDTIDFLNYTVNGDERQLWMSLGGTWMKARAEWPKEQFIPPYVPRFRNGWEPPMLNFMGATMEQDLYQLAESVANVAEHQRKQEIKRLSTEHSSVSEYHPADGYAFSSNIYTRGSHLDQGEAAVAFKPTSNRHIDRNYEPLKTQPKKYAKSKYDFVARNNSELSVLKDDILEILDDRKQWWKVRNASGDSGFVPNNILDIVRPPESGLGRADPPYTHTIQKQRMEYGPRPADTPPAPSPPPTPAPVPVPLPPSTPAPVPVSKVPANITRQNSSSSDSGGSIVRDSQRHKQLPVDRRKSQMEEVQDELIHRLTIGRSAAQKKFHVPRQNVPVINITYDSTPEDVKTWLQSKGFNPVTVNSLGVLNGAQLFSLNKDELRTVCPEGARVYSQITVQKAALEDSSGSSELQEIMRRRQEKISAAASDSGVESFDEGSSH
B3: VAV1 (protein, UniProt P15498 1-845, looked up)
Proto-oncogene vav: MELWRQCTHWLIQCRVLPPSHRVTWDGAQVCELAQALRDGVLLCQLLNNLLPHAINLREVNLRPQMSQFLCLKNIRTFLSTCCEKFGLKRSELFEAFDLFDVQDFGKVIYTLSALSWTPIAQNRGIMPFPTEEESVGDEDIYSGLSDQIDDTVEEDEDLYDCVENEEAEGDEIYEDLMRSEPVSMPPKMTEYDKRCCCLREIQQTEEKYTDTLGSIQQHFLKPLQRFLKPQDIEIIFINIEDLLRVHTHFLKEMKEALGTPGAANLYQVFIKYKERFLVYGRYCSQVESASKHLDRVAAAREDVQMKLEECSQRANNGRFTLRDLLMVPMQRVLKYHLLLQELVKHTQEAMEKENLRLALDAMRDLAQCVNEVKRDNETLRQITNFQLSIENLDQSLAHYGRPKIDGELKITSVERRSKMDRYAFLLDKALLICKRRGDSYDLKDFVNLHSFQVRDDSSGDRDNKKWSHMFLLIEDQGAQGYELFFKTRELKKKWMEQFEMAISNIYPENATANGHDFQMFSFEETTSCKACQMLLRGTFYQGYRCHRCRASAHKECLGRVPPCGRHGQDFPGTMKKDKLHRRAQDKKRNELGLPKMEVFQEYYGLPPPPGAIGPFLRLNPGDIVELTKAEAEQNWWEGRNTSTNEIGWFPCNRVKPYVHGPPQDLSVHLWYAGPMERAGAESILANRSDGTFLVRQRVKDAAEFAISIKYNVEVKHIKIMTAEGLYRITEKKAFRGLTELVEFYQQNSLKDCFKSLDTTLQFPFKEPEKRTISRPAVGSTKYFGTAKARYDFCARDRSELSLKEGDIIKILNKKGQQGWWRGEIYGRVGWFPANYVEEDYSEYC
B4: PDCD6IP (protein, UniProt Q8WUM4 2-868, looked up)
Programmed cell death …: ATFISVQLKKTSEVDLAKPLVKFIQQTYPSGGEEQAQYCRAAEELSKLRRAAVGRPLDKHEGALETLLRYYDQICSIEPKFPFSENQICLTFTWKDAFDKGSLFGGSVKLALASLGYEKSCVLFNCAALASQIAAEQNLDNDEGLKIAAKHYQFASGAFLHIKETVLSALSREPTVDISPDTVGTLSLIMLAQAQEVFFLKATRDKMKDAIIAKLANQAADYFGDAFKQCQYKDTLPKEVFPVLAAKHCIMQANAEYHQSILAKQQKKFGEEIARLQHAAELIKTVASRYDEYVNVKDFSDKINRALAAAKKDNDFIYHDRVPDLKDLDPIGKATLVKSTPVNVPISQKFTDLFEKMVPVSVQQSLAAYNQRKADLVNRSIAQMREATTLANGVLASLNLPAAIEDVSGDTVPQSILTKSRSVIEQGGIQTVDQLIKELPELLQRNREILDESLRLLDEEEATDNDLRAKFKERWQRTPSNELYKPLRAEGTNFRTVLDKAVQADGQVKECYQSHRDTIVLLCKPEPELNAAIPSANPAKTMQGSEVVNVLKSLLSNLDEVKKEREGLENDLKSVNFDMTSKFLTALAQDGVINEEALSVTELDRVYGGLTTKVQESLKKQEGLLKNIQVSHQEFSKMKQSNNEANLREEVLKNLATAYDNFVELVANLKEGTKFYNELTEILVRFQNKCSDIVFARKTERDELLKDLQQSIAREPSAPSIPTPAYQSSPAGGHAPTPPTPAPRTMPPTKPQPPARPPPPVLPANRAPSATAPSPVGAGTAAPAPSQTPGSAPPPQAQGPPYPTYPGYPGYCQMPMPMGYNPYAYGQYNMPYPPVYHQSPGQAPYPGPQQPSYPFPQPPQQSYYPQQ
B5: CISH (protein, UniProt Q9NSE2 1-258, looked up)
Cytokine-inducible …: MVLCVQGPRPLLAVERTGQRPLWAPSLELPKPVMQPLPAGAFLEEVAEGTPAQTESEPKVLDPEEDLLCIAKTFSYLRESGWYWGSITASEARQHLQKMPEGTFLVRDSTHPSYLFTLSVKTTRGPTNVRIEYADSSFRLDSNCLSRPRILAFPDVVSLVQHYVASCTADTRSDSPDPAPTPALPMPKEDAPSDPALPAPPPATAVHLKLVQPFVRRSSARSLQHLCRLVINRLVADVDCLPLPRRMADYLRQYPFQL

The first experiment concerns the target T1, EGFR-L858R (Homo sapiens, UniProt P00533, L858R).
T1 construct: with the advantage of testing full-length integral membrane proteins; (GGGGS)2 linker-Cub (human ubiquitin aa 35-76)-GAL4(1-147)-mNFkB(364-550) (C); expressed in transfected cells
The experiment is described as follows: MaMTH EGFR-interactor screen, lentiviral preys against EGFR-L858R bait (interaction score). The format is cell-based. The following applies: MaMTH interaction score of prey with EGFR-L858R bait. In a few lines:
(§1)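 5×GAL4UAS-luciferase HEK293T reporter cells were lentivirally infected with preys (MOI ~0.3-0.4) and puromycin-selected ≥48 h. They were then transfected in triplicate with the EGFR bait, and luciferase was read 24 h later. Score is fold-change over averaged negative-control preys; >1 denotes interaction.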
As for B1, the EGFR-L858R mean is 3.94.

With B2, the EGFR-L858R mean is reported as 5.58.

With B3, the EGFR-L858R mean was found to be 2.68.

B4 showed an EGFR-L858R mean of 14.05.

As to B5, the EGFR-L858R mean was 2.66.

A further experiment concerns the target T2, EGFR-Wt (Homo sapiens, UniProt P00533).
T2 construct: with the advantage of testing full-length integral membrane proteins; (GGGGS)2 linker-Cub (human ubiquitin aa 35-76)-GAL4(1-147)-mNFkB(364-550) (C); expressed in transfected cells
Description: MaMTH EGFR-interactor screen, lentiviral preys against EGFR-wildtype bait (interaction score). The format is cell-based. To be noted: MaMTH interaction score of prey with EGFR-Wt bait, mean. In a few lines:
as §1
The molecule B1 came in with an EGFR-Wt mean of 2.12.

For B2, the EGFR-Wt mean worked out at 2.62.

For the molecule B3, the EGFR-Wt mean was 1.45.

As to B4, the EGFR-Wt mean is on record as 7.39.

B5 gave an EGFR-Wt mean of 1.29.

For another experiment, the system named is EGFR-Wt. The description is as above. The following applies: ratio of EGFR-Wt mean to EGFR-L858R mean interaction score. The format is cell-based, human. In outline: as §1
B1: the Wt/L858R worked out at 0.54.

Take B2: the Wt/L858R is given as 0.47.

Regarding B3, the Wt/L858R is 0.54.

For the molecule B4, the Wt/L858R is 0.53.

As to B5, the Wt/L858R amounted to 0.49.
